# From patent publication US11112401B2, “Method for determining the cell mediated immune competence of a subject” (Oxford Immunotec Limited, priority 2016, dated 2021)
# Tested on: peripheral blood mononuclear cells (PBMCs)
# Experiment: ELISPOT screening of healthy donor samples with 23 commercially available peptide pools
# Assay type: cell-based, human
# Settings: healthy donors, responsive donors/donors tested in brackets
molecule,measurement,value
"EBNA-3a Protein: Epstein barr nuclear antigen-3A as protein (number of peptides N/A) (protein, UniProt P12977 1-944, looked up) Epstein-Barr nuclear antigen 3: MDKDRPGPPALDDNMEEEVPSTSVVQEQVSAGDWENVLIELSDSSSEKEAEDAHLEPAQKGTKRKRVDHDAGGSAPARPMLPPQPDLPGREAILRRFPLDLRTLLQAIGAAATRIDTRAIDQFFGSQISNTEMYIMYAMAIRQAIRDRRRNPASRRDQAKWRLQTLAAGWPMGYQAYSSWMYSYTDHQTTPTFVHLQATLGCTGGRRCHVTFSAGTFKLPRCTPGDRQWLYVQSSVGNIVQSCNPRYSIFFDYMAIHRSLTKIWEEVLTPDQRVSFMEFLGFLQRTDLSYIKSFVSDALGTTSIQTPWIDDNPSTETAQAWNAGFLRGRAYGIDLLRTEGEHVEGATGETREESEDTESDGDDEDLPCIVSRGGPKVKRPPIFIRRLHRLLLMRAGKRTEQGKEVLEKARGSTYGTPRPPVPKPRPEVPQSDETATSHGSAQVPEPPTIHLAAQGMAYPLHEQHGMAPCPVAQAPPTPLPPVSPGDQLPGVFSDGRVACAPVPAPAGPIVRPWEPSLTQAAGQAFAPVRPQHMPVEPVPVPTVALERPVYPKPVRPAPPKIAMQGPGETSGIRRARERWRPAPWTPNPPRSPSQMSVRDRLARLRAEAQVKQASVEVQPPQLTQVSPQQPMEGPLVPEQQMFPGAPFSQVADVVRAPGVPAMQPQYFDLPLIQPISQGAPVAPLRASMGPVPPVPATQPQYFDIPLTEPINQGASAAHFLPQQPMEGPLVPEQWMFPGAALSQSVRPGVAQSQYFDLPLTQPINHGAPAAHFLHQPPMEGPWVPEQWMFQGAPPSQGTDVVQHQLDALGYTLHGLNHPGVPVSPAVNQYHLSQAAFGLPIDEDESGEGSDTSEPCEALDLSIHGRPCPQAPEWPVQEEGGQDATEVLDLSIHGRPRPRTPEWPVQGEGGQNVTGPETRRVVVSAVVHMCQDDEFPDLQDPPDEA",Percentage Responsive (10 spot arbitrary cut off),13% (19/137
